The text below walks through data of patent US11260115B1, “Peptides and combination of peptides for use in immunotherapy against CLL and other cancers” (immatics biotechnologies GmbH, priority 2015, dated 2022).

The test system of one test is CD8+ T cells. The test can be described thus: In vitro immunogenicity: T-cell priming with aAPCs loaded with peptide/MHC and anti-CD28, pMHC multimer readout. It counts as cell-based, human. Particulars: HLA-A*02 restricted peptides, percentage of positive wells among evaluable. Here is the method:
FIGS. 3A-3F describe simulation graphs of various peptides of the present disclosure. […] CD8+ T cells were primed using artificial APCs coated with anti-CD28 mAb and HLA-A*02 in complex with SeqID No 1 peptide (FIG. 3C, left panel), SeqID No 5 peptide (FIG. 3D left panel), SeqID No 32 peptide (FIG. 3E, left panel) and SeqID No 220 peptide (FIG. 3F, left panel), respectively. After three cycles of stimulation, the detection of peptide-reactive cells was performed by 2D multimer staining with A*02/SeqID No 1 (FIG. 3C), A*02/SeqID No 5 (D), A*02/SeqID No 32 (FIG. 3E) or A*02/SeqID No 220 (FIG. 3F). Right panels (FIGS. 3C, 3D, 3E and 3F) show control staining of cells stimulated with irrelevant A*02/peptide complexes. Viable singlet cells were gated for CD8+ lymphocytes. Boolean gates helped excluding false-positive events detected with multimers specific for different peptides.
In order to obtain information regarding the immunogenicity of the TUMAPs of the present invention, the inventors performed investigations using an in vitro T-cell priming assay based on repeated stimulations of CD8+ T cells with artificial antigen presenting cells (aAPCs) loaded with peptide/MHC complexes and anti-CD28 antibody.
In order to perform in vitro stimulations by artificial antigen presenting cells loaded with peptide-MHC complex (pMHC) and anti-CD28 antibody, the inventors first isolated CD8+ T cells from fresh HLA-A*02 leukapheresis products via positive selection using CD8 microbeads (Miltenyi Biotec, Bergisch-Gladbach, Germany) of healthy donors obtained from the University clinics Mannheim, Germany, after informed consent.
PBMCs and isolated CD8+ lymphocytes were incubated in T-cell medium (TCM) until use consisting of RPMI-Glutamax (Invitrogen, Karlsruhe, Germany) supplemented with 10% heat inactivated human AB serum (PAN-Biotech, Aidenbach, Germany), 100 U/ml Penicillin/100 μg/ml Streptomycin (Cambrex, Cologne, Germany), 1 mM sodium pyruvate (CC Pro, Oberdorla, Germany), 20 μg/ml Gentamycin (Cambrex). 2.5 ng/ml IL-7 (PromoCell, Heidelberg, Germany) and 10 U/ml IL-2 (Novartis Pharma, Nümberg, Germany) were also added to the TCM at this step.
Generation of pMHC/anti-CD28 coated beads, T-cell stimulations and readout was performed in a highly defined in vitro system using four different pMHC molecules per stimulation condition and 8 different pMHC molecules per readout condition.
The purified co-stimulatory mouse IgG2a anti human CD28 Ab 9.3 (Jung et al., 1987) was chemically biotinylated using Sulfo-N-hydroxysuccinimidobiotin as recommended by the manufacturer (Perbio, Bonn, Germany). Beads used were 5.6 μm diameter streptavidin coated polystyrene particles (Bangs Laboratories, Illinois, USA).
800.000 beads/200 μl were coated in 96-well plates in the presence of 4×12.5 ng different biotin-pMHC, washed and 600 ng biotin anti-CD28 were added subsequently in a volume of 200 μl. Stimulations were initiated in 96-well plates by co-incubating 1×10^6 CD8+ T cells with 2×10^6 washed coated beads in 200 μl TCM supplemented with 5 ng/ml IL-12 (PromoCell) for 3 days at 37° C. Half of the medium was then exchanged by fresh TCM supplemented with 80 U/ml IL-2 and incubating was continued for 4 days at 37° C. This stimulation cycle was performed for a total of three times. For the pMHC multimer readout using 8 different pMHC molecules per condition, a two-dimensional combinatorial coding approach was used as previously described (Andersen et al., 2012) with minor modifications encompassing coupling to 5 different fluorochromes. Finally, multimeric analyses were performed by staining the cells with Live/dead near IR dye (Invitrogen, Karlsruhe, Germany), CD8-FITC antibody clone SK1 (BD, Heidelberg, Germany) and fluorescent pMHC multimers. For analysis, a BD LSRII SORP cytometer equipped with appropriate lasers and filters was used.

The target of another test is HLA-A*02:01 (Homo sapiens, UniProt P04439, D140Y/D185E/D98H/E176V/E277Q/G131W/G231S/I119V/I121R/I166T/I218V/L300P/L318F/N151K/N90K/P208A/P217A/Q86G/Q94H/R138H/R169H/T345S). The test is described as follows: MHC binding assay (UV-ligand exchange, β2m ELISA, peptide exchange yield). Particulars: binding to HLA-A*02:01. In outline:
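Peptide-HLA-A*02:01 complexes formed by UV-mediated exchange of a photocleavable ligand; exchange yield measured by streptavidin-capture ELISA detecting β2m with HRP anti-β2m, TMB read at 450 nm. Refolded monomer standards 15-500 ng/ml; samples diluted 100-fold.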
On the technique in general: In an ELISA, binding on a coated surface is turned into a signal by an enzyme label.

Turning to “101 (ILVVIEPLL; listed as Homo sapiens) [compound 101]”, the “Wells positive [%]” value in the test on CD8+ T cells was ““+” (<20% = +)”. Also, the “Peptide Exchange (MHC class I binding score, peptide exchange yield)” value (shortened to “Peptide Exchange”) in the test with HLA-A*02:01 is given as ““++++” (>75% = ++++)”.

On to “112 (KTLDVDATYEI; listed as Homo sapiens) [compound 112]”, for which the “Wells positive [%]” value with CD8+ T cells was ““+” (<20% = +)”. In addition, the “Peptide Exchange” value with HLA-A*02:01 is recorded as ““+++” (>50 = +++)”.

On to “2 (ALHRPDVYL; listed as Homo sapiens) [compound 2]”, for which the “Wells positive [%]” value in the test with CD8+ T cells is ““+” (<20% = +)”. Further, the “Peptide Exchange” value in the test with HLA-A*02:01 is on record as ““+++” (>50 = +++)”.

Consider “322 (SLASIHVPL; listed as Homo sapiens) [compound 322]”, for which the “Wells positive [%]” value in the test on CD8+ T cells is ““+” (<20% = +)”. Moreover, the “Peptide Exchange” value with HLA-A*02:01 is recorded as ““+++” (>50 = +++)”.

Take “323 (SLDLFNCEV; listed as Homo sapiens) [compound 323]”: the “Wells positive [%]” value with CD8+ T cells is reported as ““+” (<20% = +)”. Moreover, in the test with HLA-A*02:01, the “Peptide Exchange” value is on record as ““++++” (>75% = ++++)”.

Take “240 (ILARDILEI; listed as Homo sapiens) [compound 240]”: in the test with CD8+ T cells, the “Wells positive [%]” value is ““+” (<20% = +)”. Also, in the test with HLA-A*02:01, the “Peptide Exchange” value is given as ““+++” (>50 = +++)”.

For the substance “154 (SLLAELHVLTV; listed as Homo sapiens) [compound 154]”, the “Wells positive [%]” value with CD8+ T cells is recorded as ““+” (<20% = +)”. Also, the “Peptide Exchange” value in the test with HLA-A*02:01 is given as ““++++” (>75% = ++++)”.

“192 (YIQEYLTLL; listed as Homo sapiens) [compound 192]”: the “Wells positive [%]” value in the test with CD8+ T cells was ““+” (<20% = +)”. For the same substance, the “Peptide Exchange” value in the test with HLA-A*02:01 was ““+++” (>50 = +++)”.

As to “281 (NLLDDRGMTAL; listed as Homo sapiens) [compound 281]”, the “Wells positive [%]” value with CD8+ T cells was ““+” (<20% = +)”. For the same substance, the “Peptide Exchange” value with HLA-A*02:01 is ““+++” (>50 = +++)”.

For “54 (FLYPFPLALF; listed as Homo sapiens) [compound 54]”, in the test on CD8+ T cells, the “Wells positive [%]” value is ““+” (<20% = +)”. For the same substance, the “Peptide Exchange” value with HLA-A*02:01 is ““+++” (>50 = +++)”.

Turning to “197 (YLQEVPILTL; listed as Homo sapiens) [compound 197]”, the “Wells positive [%]” value with CD8+ T cells is on record as ““+” (<20% = +)”. The “Peptide Exchange” value with HLA-A*02:01 is given as ““++++” (>75% = ++++)”.

Take “332 (VMIQHVENL; listed as Homo sapiens) [compound 332]”: the “Wells positive [%]” value with CD8+ T cells is ““+” (<20% = +)”. Besides, the “Peptide Exchange” value with HLA-A*02:01 is ““+++” (>50 = +++)”.

With “114 (LIPEGPPQV; listed as Homo sapiens) [compound 114]”, in the test on CD8+ T cells, the “Wells positive [%]” value is recorded as ““+” (<20% = +)”. In addition, the “Peptide Exchange” value with HLA-A*02:01 is recorded as ““+++” (>50 = +++)”.

Turning to “81 (WLVGQEFEL; listed as Homo sapiens) [compound 81]”, in the test with CD8+ T cells, the “Wells positive [%]” value was ““+” (<20% = +)”. In the test with HLA-A*02:01, the “Peptide Exchange” value is given as ““+++” (>50 = +++)”.

For “57 (GLSEISLRL; listed as Homo sapiens) [compound 57]”, the “Wells positive [%]” value with CD8+ T cells is on record as ““+” (<20% = +)”. The “Peptide Exchange” value with HLA-A*02:01 is listed as ““++++” (>75% = ++++)”.

“201 (YQLELHGIEL; listed as Homo sapiens) [compound 201]”: in the test with CD8+ T cells, the “Wells positive [%]” value is ““+” (<20% = +)”. Further, in the test with HLA-A*02:01, the “Peptide Exchange” value is reported as ““++++” (>75% = ++++)”.

Consider “32 (FIDKFTPPV; listed as Homo sapiens) [compound 32]”, for which the “Wells positive [%]” value with CD8+ T cells is recorded as ““++++” (>=70% = ++++)”. Also, the “Peptide Exchange” value with HLA-A*02:01 is reported as ““++++” (>75% = ++++)”.

With “26 (AVLLVLPLV; listed as Homo sapiens) [compound 26]”, in the test on CD8+ T cells, the “Wells positive [%]” value is ““+” (<20% = +)”. Also, the “Peptide Exchange” value with HLA-A*02:01 is reported as ““+++” (>50 = +++)”.

With “320 (TIAPVTVAV; listed as Homo sapiens) [compound 320]”, the “Wells positive [%]” value in the test on CD8+ T cells is recorded as ““+” (<20% = +)”. Further, in the test with HLA-A*02:01, the “Peptide Exchange” value is ““++++” (>75% = ++++)”.

Turning to “380 (YLDRKLLTL; listed as Homo sapiens) [compound 380]”, in the test on CD8+ T cells, the “Wells positive [%]” value is on record as ““++++” (>=70% = ++++)”. The “Peptide Exchange” value with HLA-A*02:01 is ““+++” (>50 = +++)”.

On to “96 (ILIDKTSFV; listed as Homo sapiens) [compound 96]”, for which the “Wells positive [%]” value in the test with CD8+ T cells is reported as ““+” (<20% = +)”. Moreover, the “Peptide Exchange” value in the test with HLA-A*02:01 is recorded as ““+++” (>50 = +++)”.

As for “307 (LLLTKPTEA; listed as Homo sapiens) [compound 307]”, the “Wells positive [%]” value in the test with CD8+ T cells is recorded as ““+” (<20% = +)”. In addition, the “Peptide Exchange” value with HLA-A*02:01 is listed as ““+++” (>50 = +++)”.

Turning to “69 (GLHQREIFL; listed as Homo sapiens) [compound 69]”, the “Wells positive [%]” value in the test on CD8+ T cells is on record as ““+” (<20% = +)”. In the test with HLA-A*02:01, the “Peptide Exchange” value is on record as ““+++” (>50 = +++)”.

With “86 (HLYPGAVTI; listed as Homo sapiens) [compound 86]”, in the test on CD8+ T cells, the “Wells positive [%]” value is ““+” (<20% = +)”. The “Peptide Exchange” value with HLA-A*02:01 is ““+++” (>50 = +++)”.

Regarding “17 (ALTKTNLQL; listed as Homo sapiens) [compound 17]”, the “Wells positive [%]” value in the test on CD8+ T cells is listed as ““+” (<20% = +)”. Moreover, the “Peptide Exchange” value with HLA-A*02:01 was ““+++” (>50 = +++)”.

“200 (YMFEEVPIVI; listed as Homo sapiens) [compound 200]”: the “Wells positive [%]” value with CD8+ T cells is on record as ““+” (<20% = +)”. In addition, in the test with HLA-A*02:01, the “Peptide Exchange” value is listed as ““++++” (>75% = ++++)”.

“102 (IQDRAVPSL; listed as Homo sapiens) [compound 102]”: the “Wells positive [%]” value in the test with CD8+ T cells is listed as ““+” (<20% = +)”. Also, the “Peptide Exchange” value with HLA-A*02:01 is recorded as ““++” (>20% = ++)”.

As to “354 (FIMDDPAGNSYL; listed as Homo sapiens) [compound 354]”, the “Peptide Exchange” value with HLA-A*02:01 is listed as ““+++” (>50 = +++)”.

With “160 (SLSFLVPSL; listed as Homo sapiens) [compound 160]”, in the test with HLA-A*02:01, the “Peptide Exchange” value was ““+++” (>50 = +++)”.

In the case of “164 (SVHKGFAFV; listed as Homo sapiens) [compound 164]”, the “Peptide Exchange” value with HLA-A*02:01 is recorded as ““+++” (>50 = +++)”.

Turning to “22 (ALWDPVIEL; listed as Homo sapiens) [compound 22]”, the “Peptide Exchange” value in the test with HLA-A*02:01 is recorded as ““+++” (>50 = +++)”.

On to “205 (GLSQANFTL; listed as Homo sapiens) [compound 205]”, for which the “Peptide Exchange” value with HLA-A*02:01 is ““+++” (>50 = +++)”.
